What all share (conditions): protein: recombinant; tags: N-terminal His-tag (pET28a, NheI/BamHI) removed with thrombin; label: 5' TAMRA on forward strand; blunt
Data set [1] addresses T1, NifA 2C-DBD (DNA binding domain with upstream Cys pair) (Gluconacetobacter diazotrophicus, UniProt A9H5T0 520-581).
T1 sequence: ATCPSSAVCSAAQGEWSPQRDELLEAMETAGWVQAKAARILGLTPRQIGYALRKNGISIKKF
The data set can be described thus: fluorescence anisotropy; oxidized (disulfide), no DTT; 10 mM Tris pH 8, 60 mM NaCl, 0.2 mM MgCl2 (5 mM DTT when reducing), 900 nM probe, 0-80 µM protein, 30 min at room temperature. Background: In fluorescence polarisation assays a small probe gives low polarisation when free and higher when bound to something large.

Data set [2] has as its target T1, NifA 2C-DBD (DNA binding domain with …). The data set can be described thus: fluorescence anisotropy; reduced, 5 mM DTT; 10 mM Tris pH 8, 60 mM NaCl, 0.2 mM MgCl2 (5 mM DTT when reducing), 900 nM probe, 0-80 µM protein, 30 min at room temperature.
In data set [3] the target is T2, NifA NC-DBD (DNA binding domain without Cys pair) (Gluconacetobacter diazotrophicus, UniProt A9H5T0 530-581).
T2 sequence: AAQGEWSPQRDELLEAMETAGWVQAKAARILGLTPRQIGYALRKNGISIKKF
The data set can be described thus: fluorescence anisotropy; no DTT; 10 mM Tris pH 8, 60 mM NaCl, 0.2 mM MgCl2 (5 mM DTT when reducing), 900 nM probe, 0-80 µM protein, 30 min at room temperature.

B1: nifH-UAS duplex, TAMRA-labeled (dsDNA)
DNA 1: CGGTTTTGTCAGGCTTCGCACAAAGCCG
DNA 2: CGGCTTTGTGCGAAGCCTGACAAAACCG
Usually Kd stands for the equilibrium constant for the complex coming apart. B1: the Kd stood at 34.5 ± 8.4 µM in data set [1], 31.5 ± 8.1 µM in data set [2] and 20 ± 5.6 µM in data set [3].
